Experimental findings from patent US20220125947A1 (published 2022) are described below.

Where a chain is given by its changes, count along the chain named.

B1: VG9B417 (antibody, human IgG1, kappa)
heavy: not shown
light: DIVMTQSPSSVSASVGDRVTITCRASQGINSWLAWYQQKPGNAPKLLIYAASSLQSGVPSRFSGIGSGTDFIFTISSLQPEDFASYYCQQANSFPWTFGQGTKVEIKRTVAAPSVFIFPPSDEQLKSGTASVVCLLNNFYPREAKVQWKVDNALQSGNSQESVTEQDSKDSTYSLSSTLTLSKADYEKHKVYACEVTHQGLSSPVTKSFNRGEC
notes: IgG1, kappa; also called antibody #27
B2: VG9B58 (antibody, human IgG1, kappa, V domains shown)
VH: QVQLQESGPGLVKPSETLSLTCTVSGGSIKSSYWTWIRQPPGKGLEWIGYMFYLGSTNYNPSLKSRVTMSIDTSRNQFSLKLSSVTAADTAVYYCSRERPVLDAFDIWGQGTMVTVSS
VL: DIQMTQSPSAMSASVGDRVTITCRASQDITNYLAWFQQKPGKVPKRLIYAASSLQGGVPSRFSGSGSGTEFTLTISSLQPEDFSTYYCLQHDTYPYTFGQGTKVDIKR
notes: IgG1, kappa; also called antibody #28
B3: VG9B136 (antibody, human IgG1, kappa, V domains shown)
VH: QVQLQQSGPGLVKPSQTLSLTCAISGDSVSSNRAAWNWIRQSPSKGLEWLGRTYYRSKWYNEYAASVKSRMSINPDTSKNQFSLQLNSVTPEDTALYYCARDLWELREACDIWGQGTMVTVSS
VL: DIVMTQSPSFLSTFVGDRVTITCRASQGISSYLAWYQQKPGKVPKLLIYVASTLQSGVPSRFSGSGSGTEFTLTISSLQPEDFATYYCQQLNSYPFTFGPGTKVDIKR
notes: IgG1, kappa; specificity column: g/d constant
B4: VG9B112 (antibody, human IgG1, kappa, V domains shown)
VH: QVQLQQSGPGLVKPSQTLSLTCAISGDSVSSNSAAWNWIRQSPSRGLEWLGGTYYRSKWFNNYAVSVKSRITINPDTSTNQFSLQLNSVTPADTAVYYCARGEWGLRDAFDIWGQGTMVTVSS
VL: B3 VL with V3Q, T13A, F14S, T20I, S30H, F96W, P100Q, V104L, D105E
notes: as for B3
B5: VG9B189 (antibody, human IgG1, lambda, V domains shown)
VH: EVQLVQSGGGLVKPGASLKLSCAASGFTFSNHGMSWVRQTSDKRLEWVASITRGGDTTYYPDNVKGRFTISRENAKNTLYLQMSSLKSDDTALYYCTRGPLTVGYAMDYWGQGTTVTVSS
VL: QSVVTQPPSASGSPGQSVTISCTGTSSDVGGYNYVSWYQQHPGKAPKLMIYEVSKRPSGVPDRFSGSKSGNTASLTVSGLQAEDEADYYCNSYAGSNNFEVFGGGTKVTVLG
notes: IgG1, lambda; specificity column: Vd2
B6: VG9B125 (antibody, human IgG1, kappa, V domains shown)
VH: EVQLVESGGTLVQPGGSLRLSCAVSGFTFSSYDMNWVRQAPGKGLEWVSYISSSSTAKYYADSVKGRFTISRDNAKNSLYLQMNSLWDEDTAVYYCAREDIVVVTPILQHWGQGTTVTVSS
VL: EIVMTQSPATLSLSPGERAILSCRASQSVSKDLAWYQQKPGQAPRLLIYDASNRATGIPARISGSGSGTDFTLTISSLEPEDFAVYYCQQRINWPLFTFGPGTKVEIKR
notes: as for B3
B7: VG9B41 (antibody, human IgG1, kappa, V domains shown)
VH: QVQLQESGPQLVRPGASVKISCKASGYSFTTYWMHWVKQRPGQGLEWIGLIDPSDSETRLNQKFKDKATLTVDKSSSTAYMRLSSPTSEDSAVYYCASNRWLLGWGQGTMVTVSS
VL: EIVLTQTPLSSPVTLGQPASISCRSSQSLVHSDGNTYLSWLHQRPGQPPRLLIYKISNRFSGVPDRFSGSGAGTDFTLKISRVETEDVGVYYCVQTREFPLTFGGGTKVEIKR
notes: IgG1, kappa; specificity column: Vd2
B8: VG9B77 (antibody, human IgG1, kappa, V domains shown)
VH: EVQLVESGAEVMKPGSSVKVSCKASGGTFSSYAISWVRQAPEQGLEWMGGIIPFFGTADYAQKFQGRVTITADKSTNTAYMELTSLRSEDTAVYYCATATVTTDYYYGMDVWGQGTMVTVSS
VL: B7 VL with L4M, T7S, S10F, H42Q, K55E, S61T, T85A, V94M, T96A, E98Q
notes: as for B3
B9: VG9B447 (antibody, human IgG1, lambda)
heavy: not shown
light: SYELTQPASVSGSPGQSITISCTGTSSDVGGYNYVSWYQQHPGKAPKLMIYEVSNRPSGVSNRFSGSKSGNTASLTISGLQAEDEADYYCSSYTSTSVVFGGGTKLTVLGQPKAAPSVTLFPPSSEELQANKATLVCLISDFYPGAVTVAWKADSSPVKAGVETTTPSKQSNNKYAASSYLSLTPEQWKSHRSYSCQVTHEGSTVEKTVAPTECS
notes: IgG1, lambda; specificity column: g/d constant
B10: VG9B386 (antibody, human IgG1, kappa, V domains shown)
VH: EVQLVESGGGLVKPGGSLRLSCAASGFTFSSYSMIWVRQAPGKGLEWVSSIGSSSTYIYYADSVRGRFTISRDNAKTSLYLQMNSLRAEDTAMYFCARDGETGGFDYWGQGILVTVSS
VL: EIVMTQSPGTLSLSPGERATLSCRASQSISRSYLAWYQQKPGQPPRLLIYGPSNRATGIPDRFSASGSGTDFTLTNSRLEPEDFAVYYCQQYGSLPLTFGGGTKVEIKR
notes: as for B3
B11: VG9B369 (antibody, human IgG1, kappa, V domains shown)
VH: EVQLLESGPTLVKPTQTLTLTCTFSGFSLSTIGVGVGWIRQPPGKALEWLSLIYWNDDKRYNPSLKSRLTITKDTSKNQVVLTMTNMDPVDTATYYCAHSHDWVHAFDIWGQGTMVTVSS
VL: DIVMTQSPSSLSASVGDRVTITCQASQDISHYLNWYQQKPGKAPKFLIYDASNLDTGVPSRFSGSGSGTDFTFTISSLQPEDIATYYCQQYDNFPLTFGGGTKVEIKR
notes: as for B3
B12: VG9B144 (antibody, human IgG1, lambda, V domains shown)
VH: QVQLVQSGAEVKKPGASVKVSCKASGYTFTGYYMHWMRQAPGQGLEWMGWINPNSGATNKEQKFQGRVTMTRDTSISTAYMELSRLRSDDTAVYYCAREDDAFDVWGQGTMVTVSS
VL: SSELTQDPAVSVALGQTVRITCQGDNLRNYYATWFQQKPGQAPVLVFFGKNNRPSGIPDRFSGSSSGDTASLTITGAQAEDEADYYCNSRDSSGNHVVFGGGTKLTVLG
notes: as for B9
B13: VG9B387 (antibody, human IgG1, lambda, V domains shown)
VH: EVQLVESGAEVKKPGASVKVSCKASGFTFTGYYLQWVRQAPGQGLEWMGWINPNSGYTDYAQRFQDRVTMTRDTSINTAYMELSRLRSDDTAVYYCARLDDAFDVWGQGTMVTVSS
VL: B12 VL with S2Y, N26S, T33I, F35Y, F47I, D68T, A77T, V97W
notes: as for B9
B14: VG9B379 (antibody, human IgG1, lambda, V domains shown)
VH: EVQLVQSGPEVKKPGASVKVSCKASGYTFTGDYIHWVRQVPGQGLEWMGWINPNSGGTNYAQKFQGRVTMTRDTSISTAFMELSRLRSDDTAVYYCAREGGVAPAAPDAFDIWGQGTMVTVSS
VL: B12 VL with N26S, N29S, T33R, F35Y, L45V, F47I, F48Y, D68N, V97R
notes: as for B9
B15: VG9B392 (antibody, human IgG1, lambda, V domains shown)
VH: QVQLVQSGAEVKRPGASAKVSCKTSGYTFTGYYIHWVRQAPGQGLEWMGWINPNSGYTNSAQKFQGRVSMTRDTSISTVYMELSRLRSDDTAVYYCAREDDAFDIWGQGTLVTVSS
VL: B12 VL with N26S, N29S, T33R, F35Y, F47I, F48Y, Q78L, S92N, L105V
notes: as for B9
B16: VG9B53 (antibody, human IgG1, kappa, V domains shown)
VH: QVQLQESGPGLVKPSETLSLTCTVSGGSISSYYWSWIRQPAGKGLEWIGRIHTIGSINYNPSLKSRVTMSVDTSKNQFSLKLSSVTAADTAVYYCAMEGVGATNYYYGMAVWGRGTMVTVSS
VL: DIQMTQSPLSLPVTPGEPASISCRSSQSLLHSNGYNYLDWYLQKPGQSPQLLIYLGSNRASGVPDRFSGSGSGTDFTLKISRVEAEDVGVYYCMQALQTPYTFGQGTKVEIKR
notes: as for B7
B17: VG9B47 (antibody, human IgG1, kappa, V domains shown)
VH: QVQLVQSGAEVKKPGSSVKVSCKASGGSFSNYAISWMRQAPGQGLEWMGGIIPFFGTPDYAQKFQGRVTITADKSTSTAYMELSSLRSEDTAVYYCSTGGGYGDYDYYYGINVWGQGTMVTVSS
VL: DIVMTQSPLSSPVDLGQPASISCRSSQSLVHSDGNTYLSWLQQRPGQPPRLLIYKISNRFSGVPDRFSGSGAGTDFTLKISRVEAEDVGVYYCMQAKEFPLTLGGGTKVDIKR
notes: as for B3
B18: VG9B96 (antibody, human IgG1, kappa, V domains shown)
VH: EVQLVQSGAEVKKPGSSVKVSCKASGGTFSNYAISWVRLAPGQGLEWMGGIIPIFSAGTYAQRFQGRVTITADKSTSTAYMELNSLRSEDTAVYYCSSNSGTYYDYYYGMDVWGQGTMVTVSS
VL: B17 VL with P12H, D14T, S57F, F60L, E98Q, L103F, D110E
notes: as for B3
B19: VG9B410 (antibody, human IgG1, kappa)
heavy: not shown
light: B1 light with V3Q
notes: as for B3

One experiment concerns the target T1, γδ T cell receptor on human γδ T cells (human).
T1 construct: also called AG000003021 (γδ T cells)
Nature of the experiment: flow cytometry, dose-response binding at 37 C on human γδ T cells. The procedure: (§1) Binding of antibodies to human γδ T cells or SKW cell lines expressing Vγ9/Vδ2, Vγ9/Vδ2 or Vγ5/Vδ2 was carried out by flow cytometry. Briefly, the cells were centrifuged at 300×g for 5 minutes and the pellet was resuspended in 34 ml fresh media (in RPMI+10% FBS). 50 μL of the cells were then plated (44K cells/well) into assay plates. Samples were incubated for one hour at 37° C. in tissue culture (TC) incubator followed by wash steps by adding 100 μl FACS staining buffer. Secondary detention antibodies (A647 conjugated anti-human IgG Fc specific antibody (2 μg/mL) along with AF488 anti mouse CD3, clone OKT3 at 1 ug/mL) were added at 50 μL/well to appropriate wells according to the plate map. After incubating for 60 minutes at 37° C. in the TC incubator, cells were again washed as described above. This is followed by resuspension in 20 μL/well running buffer containing 1:1000 dilution of Sytox blue dead cell stain and the plates were run on iQue Screener.
(§2) Gating and data analysis: Human anti-human Vγ9 antibody (VG9B2 mAb at 10 nM) was used to mark the gating of positive population. All cells were first gated for singlets on SCS-A vs. SCS-H dot plot, live/dead followed by CD3 positive population, and this subset of CD3 positive population was gated for Vγ9 positive binding using positive control mAb. Cells were also assessed for cell binding of control mAbs by RL1 (A647) Geomeans from the live cell population. Advanced metrics were used and normalization metrics were chosen to calculate fold over background wells containing secondary antibody alone (designated as ‘background’ within ForeCyt settings).
Background: In flow cytometry, cells or beads pass a laser one at a time.
On to B1, for which the “Max. Activity” value is 2700 fold over background. As to B2, the “Max. Activity” value turned out to be 2690 fold over background.

The target of a further experiment is T2, γδ T cell receptor on human γδ T cells (human).
T2 construct: whole, on cells; Target is the γδ TCR on a mixed population of human γδ T cells; also called AG000003021 (γδ T cells)
Kind of experiment: flow cytometry DRC binding 37 C, human γδ T cells. How it is done: as §1, §2
As for B3, the “Max. Activity” value was found to be 2680 fold over background. On the same count and under the same terms, with B4 the figure was 1990 fold over background; with B5, 739 fold over background. Same read-out and setting: with B6 the figure was 1990 fold over background; with B7, 137 fold over background.

As to B8, the “Max. Activity” value was determined as 772 fold over background.

On to B9, for which the “Max. Activity” value was 1420 fold over background. Same read-out and setting: to B10 belongs 2110 fold over background.

In the case of B11, the “Max. Activity” value was 2430 fold over background. As for B12, the “Max. Activity” value stood at 2430 fold over background. Still for that read-out and setting: to B13 belongs 1970 fold over background; to B14, 1460 fold over background; to B15, 1250 fold over background. Turning to B16, the “Max. Activity” value is 536 fold over background.

Regarding B17, the “Max. Activity” value stood at 1560 fold over background. Turning to B18, the “Max. Activity” value is 1020 fold over background. For B19, the “Max. Activity” value is 2250 fold over background.
